Data taken from the supplement of paper PMC10567573.

B1: MLL5 (parent)
chain: HDDGYMICCDKCSVWQHIDCMGID

Variants of: B1
Test: protein stability index of a GFP-peptide fusion (GPS, HEK-293T) (PSI 1-6); higher = more stable
Conditions: c terminus: a fixed tail appended
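Further: lentivirally expressed fusions sorted by FACS into six bins by GFP to DsRed ratio, PSI derived from sequencing read proportions per bin multiplied by bin number.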

Protein stability index of substitutions, site by site:
G22: S 2.14; H 2.79; E 2.4; N 2.58; M 2.25
Y5: H 3.79; A 3.46; E 3.39; I 2.98; L 2.78; W 2.03; R 3.42
K11: D 2.79; F 1.05; I 2; R 1.85; Q 2.94; N 2.31
M6: C 3.2; D 2.96; P 2.96; Y 2.14; I 2.65; R 3.35; H 4.05; A 3.37; F 2.22
Q16: E 2.6; R 2.48; K 2.35; G 2.71; Y 1.07; M 2.65; T 1.69; S 1.93; P 3.15
M21: R 2.85; E 2.83; V 2.34; Y 2.21; I 2.5; F 2.17; P 3.14
C9: T 3.75; Y 1.47; E 3.42; Q 3; D 3.74; A 2.56
H17: Y 1.63; D 2.5; P 2.18; A 2.16; K 1.52; S 2.48; Q 2.48
D19: K 2.52; G 2.84; C 2.94; F 1.74; Q 2.62; I 2.25; W 1.98; Y 1.72; V 3.42
D24: K 2.13; G 2.19; M 1.56; S 2.35; A 2.17; H 2.29; W 1.49; N 2.09
D3: E 2.95; S 1.69; H 2.01; N 2.09; P 2.65; V 2.75
W15: A 3.38; N 3.79; Y 2.73; C 3.49; K 3.61; T 3.7; R 3.18; H 3.93
C12: F 1.76; P 2.56; I 1.92; R 2.28; A 2.71; H 2.65
I23: G 2.95; H 3.15; P 2.5; Q 2.89; L 2.57; A 2.56; K 2.99; E 3.53; N 2.52; Y 2.34; C 3.67
D2: G 2.05; W 1.84; R 2.02; Y 1.93; E 2.53; N 1.71
V14: M 2.06; N 3.05; E 3.73; Q 2.83; G 2.94; L 1.78; C 2.57; W 2.11; H 3.23; I 2.57
G4: V 2.1; H 2.29; E 2.99; T 2.04; Y 2.48; I 1.51; F 1.94
C8: F 1.56; P 3.12; S 1.83; T 2.66; M 1.68; K 2.25; R 2.51
I7: V 2.79; E 3.23; H 3.55; F 2.72; D 3.42; R 2.45
C20: N 2.81; Y 1.68; H 2.12; E 2.29; V 1.89; A 2.5
I18: K 3.36; E 3.5; M 3.14; Y 2.6; W 2.38
D10: S 2.72; T 1.69; G 1.92; V 3.07; K 2.51
S13: H 2.09; R 3.31; P 2.7; N 2.56
H1: F 1.66; A 2.42; R 2.29; W 2.63; S 2.81; M 1.57; G 2.25
